In US20060099701:

Experiments:
[1] = tested on: cyclin A (immunoprecipitated)
[2] = tested on: ACDK proteins (immunoprecipitated from brain tissue extracts with the anti-ACDK-specific antibody)

Substance | pRB phosphorylation (kinase reaction, Western blot with pRB phosphospecific antibodies) [1] | observed phosphorylation efficiency of pRB, against the cyclin A-CDK2 complex [2] | pRB phosphorylation (kinase reaction, Western blot with pRB phosphospecific antibodies) [2]
CDK2 (immunoprecipitated, native) | Lane B, pRB phosphorylated by cyclin A-CDK2 (positive control) | ACDK-CDK2 activity was approximately 2-fold higher than that of cyclin A-CDK2 complex | pRB was phosphorylated by ACDK-CDK2 complex at threonine 821
CDK1 (immunoprecipitated, native) | Lane B, pRB phosphorylated by cyclin A-CDK1 (positive control) |  | by ACDK-CDK1 complex at serine 249 and/or threonine 252
